Measurements: the supplement of paper PMC9112550, “Optimization of the antimicrobial peptide Bac7 by deep mutational scanning” (BMC Biology, 2022)

Test system: Escherichia coli TOP10
Assay: shrunken log2 fold change of peptide-encoding DNA abundance (4.5 h post-induction vs induction); higher = less antimicrobial activity (less host growth inhibition)
Conditions: time post-induction: 4.5 h; library: site-saturation at positions 5, 18, 19, 20
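Also: peptides expressed intracellularly from a pBAD plasmid library in pooled LB shake-flask culture, induced with 0.3% L-arabinose, DNA abundance read by NGS, three biological replicates, DESeq2 with apeglm shrinkage.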

Sequence | shrunken log2 fold change
RRIRARPPRLPRPRPRPTPWPRP | 0.563
RRIRVRPPRLPRPRPRPTSNPRP | -0.296
RRIRARPPRLPRPRPRPMSFPRP | -0.0283
RRIRDRPPRLPRPRPRPWSEPRP | -0.228
RRIRWRPPRLPRPRPRPWCPPRP | 0.0505
RRIRSRPPRLPRPRPRPVLTPRP | -0.0627
RRIRNRPPRLPRPRPRPRPKPRP | 0.719
RRIRRRPPRLPRPRPRPTKMPRP | 0.248
RRIRKRPPRLPRPRPRPYGTPRP | -0.272
RRIRDRPPRLPRPRPRPTQKPRP | 0.268
RRIRARPPRLPRPRPRPKDCPRP | 0.181
RRIRNRPPRLPRPRPRPVKEPRP | -0.0182
RRIRGRPPRLPRPRPRPHKAPRP | -0.0636
RRIRGRPPRLPRPRPRPKHHPRP | 0.309
RRIRLRPPRLPRPRPRPSVTPRP | -0.267
RRIRNRPPRLPRPRPRPFVLPRP | -0.451
RRIRDRPPRLPRPRPRPRSFPRP | 0.429
RRIRGRPPRLPRPRPRPNTSPRP | 0.172
RRIRSRPPRLPRPRPRPWDRPRP | -0.0645
RRIRCRPPRLPRPRPRPRPHPRP | 0.211
RRIRERPPRLPRPRPRPLEGPRP | -0.363
RRIRARPPRLPRPRPRPCWRPRP | -0.0211
RRIRCRPPRLPRPRPRPHTSPRP | -0.498
RRIRPRPPRLPRPRPRPEGFPRP | 0.86
RRIRYRPPRLPRPRPRPHIHPRP | -0.745

Sequence | shrunken log2 fold change
RRIRKRPPRLPRPRPRPPLNPRP | 0.309
RRIRPRPPRLPRPRPRPHVFPRP | -0.327
RRIRSRPPRLPRPRPRPRRNPRP | 0.128
RRIRTRPPRLPRPRPRPHNLPRP | -0.274
RRIRHRPPRLPRPRPRPWHHPRP | 0.0223
RRIRARPPRLPRPRPRPMAHPRP | 0.733
RRIRGRPPRLPRPRPRPETTPRP | 2.32
RRIRQRPPRLPRPRPRPKMHPRP | 0.127
RRIRNRPPRLPRPRPRPFQFPRP | -0.0984
RRIRYRPPRLPRPRPRPRCSPRP | -0.173
RRIRRRPPRLPRPRPRPCCDPRP | 0.583
RRIRSRPPRLPRPRPRPFEHPRP | -0.0715
RRIRPRPPRLPRPRPRPGGHPRP | 0.372
RRIRCRPPRLPRPRPRPMHFPRP | 0.102
RRIRKRPPRLPRPRPRPWSCPRP | -0.22
RRIRPRPPRLPRPRPRPMFSPRP | -0.295
RRIRARPPRLPRPRPRPIQSPRP | -0.035
RRIRERPPRLPRPRPRPRDHPRP | 0.162
RRIRARPPRLPRPRPRPSCPPRP | 0.131
RRIRWRPPRLPRPRPRPLPVPRP | -0.0992
RRIRGRPPRLPRPRPRPQIEPRP | 0.462
RRIRLRPPRLPRPRPRPSSEPRP | 0.0265
RRIRSRPPRLPRPRPRPSQMPRP | -0.161
RRIRARPPRLPRPRPRPFPLPRP | -0.0297
RRIRMRPPRLPRPRPRPGLGPRP | 0.914

Sequence | shrunken log2 fold change
RRIRKRPPRLPRPRPRPFPVPRP | -0.288
RRIRHRPPRLPRPRPRPGTNPRP | -0.212
RRIRPRPPRLPRPRPRPAHSPRP | -0.00917
RRIRTRPPRLPRPRPRPPPSPRP | 1.16
RRIRWRPPRLPRPRPRPTWWPRP | 0.79
RRIRGRPPRLPRPRPRPFPFPRP | -0.0622
RRIRARPPRLPRPRPRPQPTPRP | 0.781
RRIRWRPPRLPRPRPRPSCHPRP | -0.066
RRIRTRPPRLPRPRPRPVIHPRP | 0.0146
RRIRCRPPRLPRPRPRPVYQPRP | -0.783
RRIRKRPPRLPRPRPRPRARPRP | 0.776
RRIRYRPPRLPRPRPRPKPRPRP | 0.515
RRIRSRPPRLPRPRPRPSHAPRP | -0.449
RRIRARPPRLPRPRPRPDQCPRP | 0.0213
RRIRSRPPRLPRPRPRPGGAPRP | 0.574
RRIRHRPPRLPRPRPRPNFLPRP | -0.322
RRIRFRPPRLPRPRPRPIMHPRP | -0.212
RRIRHRPPRLPRPRPRPECAPRP | 0.249
RRIRIRPPRLPRPRPRPHDFPRP | 0.0334
RRIRCRPPRLPRPRPRPPQDPRP | 1.08
RRIRGRPPRLPRPRPRPRSGPRP | 0.83
RRIRPRPPRLPRPRPRPMNDPRP | -0.329
RRIRVRPPRLPRPRPRPGLIPRP | -0.359
RRIRCRPPRLPRPRPRPRTSPRP | 0.00938
RRIRRRPPRLPRPRPRPWTPPRP | 0.568

Sequence | shrunken log2 fold change
RRIRQRPPRLPRPRPRPHMEPRP | -0.172
RRIRPRPPRLPRPRPRPCMKPRP | -0.0472
RRIRLRPPRLPRPRPRPQVRPRP | 0.0635
RRIRCRPPRLPRPRPRPYATPRP | -0.294
RRIRHRPPRLPRPRPRPNWQPRP | -0.0282
RRIRNRPPRLPRPRPRPGPCPRP | -0.0814
RRIRYRPPRLPRPRPRPHKKPRP | -0.0787
RRIRDRPPRLPRPRPRPITPPRP | -0.117
RRIRVRPPRLPRPRPRPTDLPRP | -0.101
RRIRDRPPRLPRPRPRPCYLPRP | -0.345
RRIRVRPPRLPRPRPRPKLWPRP | 0.127
RRIRIRPPRLPRPRPRPMITPRP | -0.616
RRIRSRPPRLPRPRPRPTRKPRP | 0.138
RRIRIRPPRLPRPRPRPCWDPRP | -0.0479
RRIRGRPPRLPRPRPRPQETPRP | -0.0108
RRIRYRPPRLPRPRPRPTDQPRP | -0.175
RRIRKRPPRLPRPRPRPIWAPRP | -0.0352
RRIRYRPPRLPRPRPRPPCYPRP | -0.378
RRIRRRPPRLPRPRPRPVANPRP | 0.207
RRIRHRPPRLPRPRPRPIYLPRP | -0.211
RRIRTRPPRLPRPRPRPTTQPRP | -0.338
RRIRDRPPRLPRPRPRPDTMPRP | 0.373
RRIRERPPRLPRPRPRPRKPPRP | -0.13
RRIRWRPPRLPRPRPRPIIKPRP | -0.312
RRIRNRPPRLPRPRPRPMILPRP | -0.0112

Sequence | shrunken log2 fold change
RRIRGRPPRLPRPRPRPETWPRP | 1.28
RRIRQRPPRLPRPRPRPINSPRP | -0.413
RRIRDRPPRLPRPRPRPTSSPRP | 0.058
RRIRFRPPRLPRPRPRPRKFPRP | 0.171
RRIRLRPPRLPRPRPRPMHFPRP | 0.108
RRIRKRPPRLPRPRPRPIQNPRP | 0.151
RRIRIRPPRLPRPRPRPREAPRP | 0.0165
RRIRVRPPRLPRPRPRPEDGPRP | -0.263
RRIRARPPRLPRPRPRPCDRPRP | -0.00133
RRIRNRPPRLPRPRPRPPSRPRP | 0.228
RRIRCRPPRLPRPRPRPFQVPRP | -0.335
RRIRWRPPRLPRPRPRPGEYPRP | 0.147
RRIRDRPPRLPRPRPRPRCTPRP | -0.054
RRIRTRPPRLPRPRPRPTPAPRP | 0.57
RRIRFRPPRLPRPRPRPGVVPRP | 0.231
RRIRYRPPRLPRPRPRPLIHPRP | -1.38
RRIRSRPPRLPRPRPRPTHIPRP | -0.165
RRIRERPPRLPRPRPRPHMRPRP | 0.0528
RRIRARPPRLPRPRPRPLCVPRP | 0.183
RRIRTRPPRLPRPRPRPAPAPRP | 0.463
RRIRKRPPRLPRPRPRPDPVPRP | -0.146
RRIRERPPRLPRPRPRPCMQPRP | -0.133
RRIRVRPPRLPRPRPRPNWNPRP | -0.318
RRIRQRPPRLPRPRPRPVIIPRP | -1.01
RRIRQRPPRLPRPRPRPLSWPRP | 0.485

Sequence | shrunken log2 fold change
RRIRHRPPRLPRPRPRPRHCPRP | 0.03
RRIRNRPPRLPRPRPRPPPPPRP | 1.25
RRIRKRPPRLPRPRPRPFNWPRP | 0.00115
RRIRGRPPRLPRPRPRPYCMPRP | -0.148
RRIRCRPPRLPRPRPRPCKQPRP | -0.0357
RRIRDRPPRLPRPRPRPGKPPRP | 0.0599
RRIRDRPPRLPRPRPRPKDQPRP | -0.111
RRIRGRPPRLPRPRPRPILFPRP | 0.257
RRIRYRPPRLPRPRPRPIQTPRP | -0.499
RRIRKRPPRLPRPRPRPKGRPRP | 0.262
RRIRWRPPRLPRPRPRPCCEPRP | -0.00563
RRIRNRPPRLPRPRPRPRGFPRP | 0.443
RRIRFRPPRLPRPRPRPTAKPRP | 0.444
RRIRCRPPRLPRPRPRPGVGPRP | 0.455
RRIRERPPRLPRPRPRPRQDPRP | -0.0529
RRIRYRPPRLPRPRPRPEWYPRP | -0.00146
RRIRARPPRLPRPRPRPKSHPRP | -0.184
RRIRKRPPRLPRPRPRPWRDPRP | 0.188
RRIRARPPRLPRPRPRPRAGPRP | 0.896
RRIRERPPRLPRPRPRPQATPRP | -0.0202
RRIRGRPPRLPRPRPRPHRWPRP | 0.252
RRIRVRPPRLPRPRPRPCCHPRP | -0.217
RRIRCRPPRLPRPRPRPTYEPRP | -0.717
RRIRVRPPRLPRPRPRPNHKPRP | -0.292
RRIRNRPPRLPRPRPRPIHKPRP | -0.377
